US20220073608A1 (JIANGSU HUAIYU PHARMACEUTICAL, published 2022)

T1: human SEMA4D, full length, on CHO-K1 cells (CHO-K1 hSEMA4D) (human, UniProt Q92854 22-862)
T1 construct: whole, on cells; also called human SEMA4D recombinant cells
T1 sequence (looked up): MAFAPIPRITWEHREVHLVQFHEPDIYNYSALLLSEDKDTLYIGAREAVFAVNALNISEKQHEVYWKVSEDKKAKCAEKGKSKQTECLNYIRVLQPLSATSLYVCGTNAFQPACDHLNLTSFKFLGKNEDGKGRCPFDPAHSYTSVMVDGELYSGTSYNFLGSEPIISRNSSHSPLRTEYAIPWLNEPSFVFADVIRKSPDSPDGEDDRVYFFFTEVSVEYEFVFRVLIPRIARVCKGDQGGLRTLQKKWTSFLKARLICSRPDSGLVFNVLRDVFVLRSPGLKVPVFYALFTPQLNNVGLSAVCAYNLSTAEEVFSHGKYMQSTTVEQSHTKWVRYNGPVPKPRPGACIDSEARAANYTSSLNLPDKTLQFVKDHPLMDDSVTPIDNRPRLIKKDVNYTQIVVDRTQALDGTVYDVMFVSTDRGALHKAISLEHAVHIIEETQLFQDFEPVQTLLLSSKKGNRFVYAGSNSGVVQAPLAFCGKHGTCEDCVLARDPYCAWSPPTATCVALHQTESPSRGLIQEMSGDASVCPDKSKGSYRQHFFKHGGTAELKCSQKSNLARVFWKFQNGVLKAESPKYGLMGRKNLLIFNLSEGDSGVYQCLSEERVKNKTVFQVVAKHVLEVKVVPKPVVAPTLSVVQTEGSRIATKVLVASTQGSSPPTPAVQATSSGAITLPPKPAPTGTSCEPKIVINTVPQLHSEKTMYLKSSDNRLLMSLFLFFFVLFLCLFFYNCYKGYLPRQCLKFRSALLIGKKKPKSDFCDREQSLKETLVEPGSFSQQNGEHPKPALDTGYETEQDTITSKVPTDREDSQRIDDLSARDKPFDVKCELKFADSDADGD

T2: mouse SEMA4D, full length, on CHO-K1 cells (CHO-K1 mSEMA4D) (mouse, UniProt O09126 24-861)
T2 construct: whole, on cells; also called murine SEMA4D recombinant cells
T2 sequence (looked up): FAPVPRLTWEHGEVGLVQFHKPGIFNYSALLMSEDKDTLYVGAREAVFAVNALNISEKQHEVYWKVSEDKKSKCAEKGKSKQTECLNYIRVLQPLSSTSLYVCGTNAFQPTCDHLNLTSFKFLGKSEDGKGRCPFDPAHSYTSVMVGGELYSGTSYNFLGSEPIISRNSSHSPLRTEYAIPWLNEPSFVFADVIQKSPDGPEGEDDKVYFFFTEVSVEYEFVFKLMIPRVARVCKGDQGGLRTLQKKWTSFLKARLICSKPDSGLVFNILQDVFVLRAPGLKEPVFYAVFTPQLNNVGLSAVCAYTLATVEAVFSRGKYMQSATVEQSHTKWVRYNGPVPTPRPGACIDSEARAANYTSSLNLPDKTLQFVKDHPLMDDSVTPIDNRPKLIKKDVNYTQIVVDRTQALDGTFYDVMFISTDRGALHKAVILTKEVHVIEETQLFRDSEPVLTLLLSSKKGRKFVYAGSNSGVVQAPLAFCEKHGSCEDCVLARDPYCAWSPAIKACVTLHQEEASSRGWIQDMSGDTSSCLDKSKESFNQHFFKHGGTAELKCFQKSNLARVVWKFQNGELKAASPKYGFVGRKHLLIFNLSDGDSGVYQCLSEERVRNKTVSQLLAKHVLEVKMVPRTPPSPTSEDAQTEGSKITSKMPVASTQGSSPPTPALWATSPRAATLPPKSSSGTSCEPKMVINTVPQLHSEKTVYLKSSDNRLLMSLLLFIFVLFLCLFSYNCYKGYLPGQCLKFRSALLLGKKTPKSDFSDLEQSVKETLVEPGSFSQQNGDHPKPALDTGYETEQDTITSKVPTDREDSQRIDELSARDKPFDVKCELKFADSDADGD


Key:
[1] = target: T1, human SEMA4D, full length, on CHO-K1 …; assay: FACS, CHO-K1 hSEMA4D cells; Ab 2.67 nM
Description: The medium was aspirated, the cells were washed once with PBS buffer (purchased from Invitrogen), and then treated with cell dissociation fluid (TrypLE™ Express Enzyme, purchased from Life technology), and the cells were collected. After the cells counted, the cells were washed once with PBS phosphate buffer, and diluted to 3×10⁶ cells per milliliter, and added to the 96-well FACS reaction plate as 100 μL per well. 2% (w/w) fetal calf serum was added to PBS phosphate buffer as FACS buffer, with which the cells were washed once by centrifugation at 2000 rpm 4° C. 100 μL of diluted and purified leading antibodies was added to each well and the plate was incubated for 1 hour on ice. […] Cells were washed 2 times by centrifugation with FACS buffer. The cells were suspended with 200 μL of FACS buffer, and FACS (FACS Verse, purchased from BD) was used to detect and analyze the results.

[2] = target: T2, mouse SEMA4D, full length, on CHO-K1 …; assay: FACS, CHO-K1 mSEMA4D cells; Ab 0.00427 nM
Description: (§1) After the cells were counted, they were diluted with PBS to 2×10⁶ cells per milliliter. After washing, 100 μL of diluted and purified leading antibodies was added to each well and the plate was incubated for 1 hour on ice. […] Cells were washed 2 times by centrifugation with FACS buffer. The cells were suspended with 200 μL of FACS buffer, FACS (FACS Verse, purchased from BD) was used to detect and analyze the results.

[3] = target: T3, monkey SEMA4D, full length, on CHO-K1 cells (CHO-K1 cSEMA4D) (monkey); assay: FACS, CHO-K1 cSEMA4D cells; Ab 0.107 nM
T3 construct: whole, on cells; also called monkey SEMA4D recombinant cells
Description: as §1

[4] = target: T2, mouse SEMA4D, full length, on CHO-K1 …; assay: FACS, CHO-K1 mSEMA4D cells; Ab 0.000853 nM
Description: as §1

[5] = target: T2, mouse SEMA4D, full length, on CHO-K1 …; assay: FACS, CHO-K1 mSEMA4D cells; Ab 2.67 nM
Description: as §1

Row | Binder | MFI [1] | MFI [2] | MFI [3] | MFI [4] | MFI [5]
1 | 42B7G2 (antibody, V domains shown, Mouse monoclonal antibody purified from hybridoma supernatant on protein A) VH: QVQLQQSGAELARPGASVKLSCKASGYTFTDYGISWVKQRTGQGLEWIGEIYLRNDNSYYNEKFKGKATLTADKSSNTAYMELRSLTSEDSAVYFCARWGDHGNNYEDAMDYWGQGTSVTVSS VL: DIVLTQSPASLAMSLGKRATISCRASESVSIIGSNLIHWYQQKPGQPPKLLIYHASNLETGVPARFSGSGSRTDFTLTIDPVEEDDVAIYYCLQSRKVPYTFGGGTKLEIK | 3790 | 30.3 | 793 | 31.1 | 31
2 | 37C4F7 (antibody, V domains shown, Mouse monoclonal antibody purified from hybridoma supernatant on protein A) VH: EFQLQQSGPEVVKPGASVKISCKASGYSFTDYNMNWMKQSKGKSLEWIGVINPNYGTTTYNQNFKGKATLTVDQSSSTAYMQLNSLTSEDSAVYYCARDMYYVYAYYTMDYWGQGTSVTVSS VL: DVVMTQTPLSLPVSLGDQASISCRSSQSLVHSNGHTYLHWYLQRPGQSPTLLIYKVSNRFSGVPDRFSGSGSGTDFTLKISRVEAEDLGVYFCSQGTHVPWTFGGGTKLEIK | 2340 | 30.5 | 237 | 30.2 | 30
3 | 38H2E3 (antibody, V domains shown, Mouse monoclonal antibody purified from hybridoma supernatant on protein A) VH: EFQLQQSGPEVVKPGASVKISCKASGYSFTDYNMNWMKQSKGKSLEWIGVISPDYGTTTYNQNFKDKATLTVDQSSSTAYMQLNSLTSEDSAVYYCAKDMYYVYAYYTMDYWGHGTSVTVSS VL: DVVMTQTPLSLPVSLGDQASISCRSSQSLVHSNGHTYLHWYLQRPGQSPTLLIYKVSNRFSGVPDRVSGSGSGTDFTLKISRVEAEDLGVYFCSQGTHVPRTFGGGTKLEIK | 2370 | 29.9 | 210 | 30.1 | 30.7
4 | 32C8F10 (antibody, V domains shown, Mouse monoclonal antibody purified from hybridoma supernatant on protein A) VH: EVQLQQSGAELVRPGASVKLSCTASGFNIKDEYIHWVKQRPEQGLEWIGWIDPANGHTEYASRFQAKATITADTSSNTAYLQLSSLTSEDTAVYYCTTGDYDGFAYWGQGTLVTVST VL: QIVLTQSPAIMSASPGEKVTISCSARSSVSYMYWYQQKPGSSPKPWIYRTSNLASGVPARFSGSGSGTSYSLTISSMEAEDAATYYCQHYHTYPYTFGGGTKLEIK | 6170 | 30.2 | 1010 | 30.4 | 30.7

Next, values leading:

Row | MFI [1] | MFI [2] | MFI [3] | MFI [4] | MFI [5] | Binder
5 | 5860 | 29.8 | 1310 | 30.1 | 30.1 | 31G10C5 (antibody, V domains shown, Mouse monoclonal antibody purified from hybridoma supernatant on protein A) VH: EVQLQQSGAELVRPGASVKLSCTASGFNIKDDYIHWVKQRPEQGLEWIGWIDPANGHIEYASNFQAKATITADTSSNTAYLQLSSLTSEDTAVYYCTTGDYDGFTYWGQGTLVTVST VL: QIVLTQSPAIMSASPGEKVTISCSARSSVSYMYWYQQKPGSSPKPWIYRTSNLASGVPARFSGSGSGTSYSLTISSMEAEDAATYYCQHYHTYPYTFGGGTKLEIK
6 | 5970 | 31.4 | 1210 | 30.9 | 30.5 | 31C11G2 (antibody, V domains shown, Mouse monoclonal antibody purified from hybridoma supernatant on protein A) VH: EVQLQQSGAELVRPGASVKLSCTASGFNIKDEYIHWVKQRPEQGLEWIGWIDPANGHTEYASRFQAKATITADTSSNTAYLQLSSLTSEDTAVYYCTTGDYDGFVYWGQGTLVTVST VL: QIVLTQSPAIMSASPGEKVTIFCSARSSVSYMYWYQQKPGSSPKPWIYRTSNLASGVPARFSGSGSGTSYSLTISSMEAEDAATYYCQHYHTYPYTFGGGTKLEIK
7 | 2880 | 30.1 | 300 | 29.7 | 30.6 | 37F11F9 (antibody, V domains shown, Mouse monoclonal antibody purified from hybridoma supernatant on protein A) VH: EVQLQQSGPVLVKPGASVKMSCKASGYTFTDYYMNWVKQSHGKSLEWIGLINPYSGGSTFNQKFKAKATLTVDKSSSSAYMDLNSLTSEDSAVYYCARVGDGYYGVTHGMDYWGQGTSVTVSS VL: DIVMTPSQKFMSTTVGDRVSITCKASQNVGTAVAWYQQKPGQSPTILIYSASNRYTGVPDRFTGSGSGTDFTLTISNMKSEDLADYFCQQYYIYPFTFAAGTKLELK
